# Test results as given in paper PMC10465527.
# Target: B55α/δ regulatory subunit of PP2A (human (endogenous in HAP1)) (UniProt P63151)
# Test: co-IP; B56α (1D3-E12) or B55α/δ (2G9) antibody crosslinked to protein G-Sepharose, 1 h with lysates of HAP1 wild-type and lcmt1-/- cells; lysis buffer 10% glycerol, 135 mM NaCl, 20 mM Tris pH 8.0, 1% Nonidet P-40; immunoblot, co-precipitated A and C normalised to the B subunit
# Chain of UniProt P63151 (P63151 whole entry, stated change not applied): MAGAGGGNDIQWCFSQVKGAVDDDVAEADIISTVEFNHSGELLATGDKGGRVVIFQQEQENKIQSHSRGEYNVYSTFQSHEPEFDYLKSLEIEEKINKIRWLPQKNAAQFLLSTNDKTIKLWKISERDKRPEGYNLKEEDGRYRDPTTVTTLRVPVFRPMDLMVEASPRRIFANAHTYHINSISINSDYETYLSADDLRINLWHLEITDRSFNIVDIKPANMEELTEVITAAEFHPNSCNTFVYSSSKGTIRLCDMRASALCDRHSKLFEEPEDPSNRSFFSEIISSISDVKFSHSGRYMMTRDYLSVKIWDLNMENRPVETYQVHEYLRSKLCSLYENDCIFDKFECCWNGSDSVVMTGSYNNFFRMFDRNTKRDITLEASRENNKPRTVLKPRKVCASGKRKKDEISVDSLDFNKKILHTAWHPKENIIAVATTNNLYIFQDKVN
substance,measurement,value
non-methylated PP2A-C (catalytic C subunit of PP2A) (from UniProt P67775 1-309) (natural protein),trimeric holoenzyme level relative to wild-type cells (of the levels in wild-type cells),0.33
